Reference: US20230272070A1 (published 2023)
Changes are numbered by the printed parent chain.

B1: 9G8 antibody (antibody, human IgG1, V domains shown)
VH: EVQLVQSGAEVKKPGESLKISCKGSGYSFTSYWIGWVRQMPGKGLEWMGIIYPGDSDTRYSPSFQGQVTISADKSISTAYLQWSSLKASDTAMYYCARGVSGIYNLHGFDIWGQGTLVTVSS
VL: DIQMTQSPSSLSASVGDRVTITCRASQSISSYLNWYQQKPGKAPKLLIYAASSLQSGVPSRFSGSGSGTDFTLTISSLQPEDFATYYCQQGRFGSPFTFGQGTKVEIK
notes: also called human IgG1 9G8 anti-CD19 antibody
B2: 5F5 antibody (antibody, human IgG1, V domains shown)
VH: B1 VH with V100I
VL: B1 VL with G91A, R92S, F93L, G94D, F97L
notes: Tested as human IgG1; also called human IgG1 5F5 anti-CD19 antibody
B3: 7F11 antibody (antibody, human IgG1, V domains shown)
VH: B1 VH
VL: B1 VL with R92M, F93W, G94D, S95N
notes: Tested as human IgG1; also called human IgG1 7F11 anti-CD19 antibody
B4: F6 antibody (antibody, human IgG1, V domains shown)
VH: EVQLVQSGAEVKKPGESLKISCKGSGYSFTSYWIGWVRQMPGKGLEWMGIIYPGDSDTRYSPSFQGQVTISADKSISTAYLQWSSLKASDTAMYYCARVWYYDFWSGADAFDIWGQGTLVTVSS
VL: EIVMTQSPATLSVSPGERATLSCRASQSVSSNLAWYQQKPGQAPRLLIYGASTRATGIPARFSGSGSGTEFTLTISSLQSEDFAVYYCQQGSLEAPQTFGQGTKVEIK
notes: Tested as human IgG1; also called human IgG1 F6 anti-CD19 antibody
B5: 7F1 antibody (antibody, human IgG1, V domains shown)
VH: EVQLVQSGAEVKKPGESLKISCKGSGYSFTSYWIGWVRQMPGKGLEWMGIIYPGDSDTRYSPSFQGQVTISADKSISTAYLQWSSLKASDTAMYYCARGDYWTGFAYWGQGTLVTVSS
VL: QSVLTQPPSVSAAPGQKVTISCSGSSSNIGNNYVSWYQQLPGTAPKLLIYDNNKRPSGIPDRFSGSKSGTSATLGITGLQTGDEADYYCGTWDLGWNSVFGGGTKLTVL
notes: Tested as human IgG1; also called human IgG1 7F1 anti-CD19 antibody
B6: 10D8 antibody (antibody, human IgG1, V domains shown)
VH: QVQLVQSGAEVKKPGSSVKVSCKASGGTFSSYAISWVRQAPGQGLEWMGGIIPIFGTANYAQKFQGRVTITADESTSTAYMELSSLRSEDTAVYYCARDRGYDYVWGSYRYGAFDIWGQGTLVTVSS
VL: QSALTQPASVSGSPGQSITISCTGTSSDVGGYNYVSWYQQHPGKAPKLMIYEVSNRPSGVSNRFSGSKSGNTASLTISGLQAEDEADYYCSSYDVWVPHMVFGGGTKLTVL
notes: Tested as human IgG1; also called human IgG1 10D8 anti-CD19 antibody

Molecular target: T1, human CD19 (human, UniProt P15391 20-556)
T1 construct: whole, on cells; also called huCD19
T1 sequence (looked up): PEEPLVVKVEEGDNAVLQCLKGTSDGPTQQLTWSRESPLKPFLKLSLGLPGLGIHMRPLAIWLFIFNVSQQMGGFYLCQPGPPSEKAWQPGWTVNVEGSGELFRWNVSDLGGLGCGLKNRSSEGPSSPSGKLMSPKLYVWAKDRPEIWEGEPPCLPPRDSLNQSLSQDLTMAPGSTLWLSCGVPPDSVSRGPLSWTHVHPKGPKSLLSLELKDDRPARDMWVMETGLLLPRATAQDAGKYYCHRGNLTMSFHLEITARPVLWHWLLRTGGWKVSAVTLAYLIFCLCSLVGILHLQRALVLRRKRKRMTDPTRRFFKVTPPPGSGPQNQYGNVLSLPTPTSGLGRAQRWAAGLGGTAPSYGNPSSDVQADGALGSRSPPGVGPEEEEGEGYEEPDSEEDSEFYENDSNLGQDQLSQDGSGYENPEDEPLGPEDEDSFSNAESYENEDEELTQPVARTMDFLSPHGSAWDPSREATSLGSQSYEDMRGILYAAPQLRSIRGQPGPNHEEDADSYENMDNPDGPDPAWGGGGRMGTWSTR
Assay: flow cytometry on human versus cynomolgus PBMC; reference: binding to cynomolgus PBMC
Experimental: The ability of various anti-CD19 antibodies of the disclosure to bind various peripheral blood mononuclear cells (PBMC). Human and cynomolgus PBMC from frozen aliquots in citrate buffer were tested. […] The PBMC were labelled with anti-CD20-PE monoclonal antibody (mAb), anti-CD14-FITC mAb, and anti-CD3-PerCP mAb cross-reactive both to human and cynomolgus species. Cell surface bound hIgG1 were detected with a mouse anti-human IgG Fc-APC mAb. FACS gating was performed with the anti-CD20 mAb for the B lymphocyte population, with the anti-CD3 for the T lymphocyte population and with anti-CD14 for the monocyte population.

Fold higher binding on human than on cynomolgus PBMC, ≤ 10 fold:
B1
B2
B3
B4
B5
B6
